From US20260126450A1

Columns and labels:
[1] = target: surface HIV-1 Env BG505 SOSIP (HIV-1 BG505.DS-SOSIP trimeric antigen), membrane-bound on HEK293 cells (HIV-1); assay: droplet co-expression, FACS sort for anti-Kappa-FITC, NGS of VH genes
[2] = target: surface HIV-1 Env BG505 SOSIP (HIV-1 BG505.DS-SOSIP trimeric antigen), membrane-bound on HEK293 cells (HIV-1); assay: FACS, anti-Kappa-FITC stain of HEK293 cells co-expressing surface Env and secreted IgG1 after 24 h in droplets

VRC01 (antibody) showed an Enrichment Ratio (FITC+ prevalence / FITC- prevalence) [1] of 2 and a fold anti-Kappa binding against cells expressing 1-20 [2] of over 5 fold.
